Residue numbers refer to the chain shown, from its start.
T1: LIG3-4(A4) (artificial)
T1 chain: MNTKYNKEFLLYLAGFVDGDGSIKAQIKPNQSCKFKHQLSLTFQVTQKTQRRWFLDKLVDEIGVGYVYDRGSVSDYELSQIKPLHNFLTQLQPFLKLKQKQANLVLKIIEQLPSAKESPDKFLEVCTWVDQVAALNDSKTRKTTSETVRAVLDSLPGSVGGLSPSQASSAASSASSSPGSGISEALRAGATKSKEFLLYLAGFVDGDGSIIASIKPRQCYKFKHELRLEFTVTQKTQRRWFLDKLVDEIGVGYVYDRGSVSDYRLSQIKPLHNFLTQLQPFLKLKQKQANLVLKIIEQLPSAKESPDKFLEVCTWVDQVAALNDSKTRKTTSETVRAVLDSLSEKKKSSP

T2: LIG3-4(B40) (artificial)
T2 chain: T1 chain with Q50K, V132I, G258K, V319I

T3: MHP14(03) (artificial)
T3 chain: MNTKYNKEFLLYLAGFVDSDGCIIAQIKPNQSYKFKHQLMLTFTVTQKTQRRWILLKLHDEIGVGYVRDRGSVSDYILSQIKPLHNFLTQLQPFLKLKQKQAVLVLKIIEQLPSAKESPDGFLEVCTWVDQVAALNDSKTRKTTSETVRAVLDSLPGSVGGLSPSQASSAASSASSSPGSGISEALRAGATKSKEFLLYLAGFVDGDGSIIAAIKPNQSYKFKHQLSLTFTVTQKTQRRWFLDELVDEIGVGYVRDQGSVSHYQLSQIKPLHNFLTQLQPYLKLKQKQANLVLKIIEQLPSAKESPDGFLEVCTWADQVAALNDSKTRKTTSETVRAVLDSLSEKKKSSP

T4: MHP14(07) (artificial)
T4 chain: T3 chain with S19G, Q50R, G121K, E244K, G308K, A316V, V319I

T5: MHP14(L14-07) (artificial)
T5 chain: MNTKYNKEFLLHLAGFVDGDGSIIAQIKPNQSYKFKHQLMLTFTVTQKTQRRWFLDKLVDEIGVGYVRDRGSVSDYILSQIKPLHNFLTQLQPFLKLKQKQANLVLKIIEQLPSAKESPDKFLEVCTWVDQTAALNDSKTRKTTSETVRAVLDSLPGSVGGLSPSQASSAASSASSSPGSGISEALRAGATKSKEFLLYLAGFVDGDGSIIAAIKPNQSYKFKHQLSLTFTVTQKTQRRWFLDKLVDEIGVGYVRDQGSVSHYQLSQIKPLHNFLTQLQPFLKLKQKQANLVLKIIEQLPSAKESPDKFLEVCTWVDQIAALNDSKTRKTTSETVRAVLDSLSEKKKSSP

B1: LIG3-4 recognition site (dsDNA)
DNA 1: ATATACCTCACACGTACGCGTA
DNA 2: TACGCGTACGTGTGAGGTATAT
B2: MHP14 recognition site (dsDNA)
DNA 1: CAAACAGATTCACGTCAGATTT
DNA 2: AAATCTGACGTGAATCTGTTTG

Experiments:
Conditions in all cases: tags: NLS, 6xHis
[1] = biological target: T1, LIG3-4(A4); experiment: cell_activity; yeast 30 C; 22 C: 0
Experimental: (§1) A 3 mL culture of selective media (MP Biomedical) was inoculated with a single colony of the yeast screening strain and grown at 30° C. overnight. On the following day, a 50 ml YPD culture (MP Biomedical) was started with 2 ml of the overnight culture and grown at 30° C. overnight. On the following day, the cells were harvested by centrifugation at 4000 rpm. The cells were resuspended in 100 ml ice cold water and centrifuged again. The cells were then washed in 1.2 M sorbitol, followed by treatment with 2 ml of 10 mM Tris pH 8.0, 1 mM EDTA, 100 mM Lithium acetate, 10 mM DTT, 0.6M sorbitol for 30 minutes at 30° C. with shaking. The cells were recovered by centrifugation, washed in 40 ml 1.2M sorbitol and finally resuspended in 250 microliters of 1.2M sorbitol. 50 microliter aliquots were transferred to test tubes on ice. Up to 5 microliters of DNA (100-500 nanograms) were added. The suspension was transferred to a 0.2 cm electroporation cuvette, on ice. Electroporation was performed with a pulse charge at 1.5 kV, 200 ohms, 25 microF (pulse time of 5 milliseconds). 1 mL YPD media (MP Biomedical) was added and the cells were allowed to recover at 30° C. for 1-2 hr. The cells were centrifuged, resuspended in 100 uL 1M sorbitol and plated on selective media lacking leucine and containing 2% galactose. The resulting yeast colonies were incubated at various temperatures ranging from 22 to 37 degrees Celsius for 7-10 days. I-CreI and meganucleases derived from it have maximal activity at or above 37 degrees Celsius. Screening was performed at a range of temperatures from 22 to 37 degrees in order to observe increases in activity at lower temperatures which are relevant to certain biological systems (eg. plant cells, plant cell cultures, etc). At that time the red/white sectoring phenotype, indicative of meganuclease activity was observed. Colonies with increased white sectoring over the parental meganuclease (indicating colonies expressing a meganuclease with increased meganuclease activity), also referred to as “hits” and sometimes completely white, were isolated for further analysis.

[2] = biological target: T2, LIG3-4(B40); experiment: cell_activity; yeast 30 C; 22 C: 0
Experimental: as §1

[3] = biological target: T3, MHP14(03); experiment: cell_activity; yeast 37 C; 28 C: 0.5
Experimental: (§2) A 3 mL culture of selective media (MP Biomedical) was inoculated with a single colony of the yeast screening strain and grown at 30° C. overnight. On the following day, a 50 ml YPD culture (MP Biomedical) was started with 2 ml of the overnight culture and grown at 30° C. overnight. On the following day, the cells were harvested by centrifugation at 4000 rpm. The cells were resuspended in 100 ml ice cold water and centrifuged again. The cells were then washed in 1.2 M sorbitol, followed by treatment with 2 ml of 10 mM Tris pH 8.0, 1 mM EDTA, 100 mM Lithium acetate, 10 mM DTT, 0.6M sorbitol for 30 minutes at 30° C. with shaking. The cells were recovered by centrifugation, washed in 40 ml 1.2M sorbitol and finally resuspended in 250 microliters of 1.2M sorbitol. 50 microliter aliquots were transferred to test tubes on ice. Up to 5 microliters of DNA (100-500 nanograms) were added. The suspension was transferred to a 0.2 cm electroporation cuvette, on ice. Electroporation was performed with a pulse charge at 1.5 kV, 200 ohms, 25 microF (pulse time of 5 milliseconds). 1 mL YPD media (MP Biomedical) was added and the cells were allowed to recover at 30° C. for 1-2 hr. The cells were centrifuged, resuspended in 100 uL 1M sorbitol and plated on selective media lacking leucine and containing 2% galactose. The resulting yeast colonies were incubated at various temperatures ranging from 22 to 37 degrees Celsius for 7-10 days. I-CreI and meganucleases derived from it have maximal activity at or above 37 degrees Celsius. Screening was performed at a range of temperatures from 22 to 37 degrees in order to observe increases in activity at lower temperatures which are relevant to certain biological systems (eg. plant cells, plant cell cultures, etc). At that time the red/white sectoring phenotype, indicative of meganuclease activity was observed. Colonies with increased white sectoring over the parental meganuclease (indicating colonies expressing a meganuclease with increased meganuclease activity), also referred to as “hits” and sometimes completely white, were isolated for further analysis. […]

[4] = biological target: T4, MHP14(07); experiment: cell_activity; yeast 37 C; 28 C: 0.5
Experimental: as §2

[5] = biological target: T5, MHP14(L14-07); experiment: cell_activity; yeast 37 C; 28 C: 0.5
Experimental: as §2

Binder | activity [1] [score 0-4] | activity [2] [score 0-4] | activity [3] [score 0-4] | activity [4] [score 0-4] | activity [5] [score 0-4]
B1 | 3.5 | 4 | – | – | –
B2 | – | – | 3 | 2.5 | 4

Reference: patent publication US20140223606, “COMPOSITIONS AND METHODS COMPRISING SEQUENCES HAVING MEGANUCLEASE ACTIVITY” (PIONEER HI BRED INTERNATIONAL INC, published 2014)
